From the supplement of paper PMC5998384

Legend:
HeLa Kyoto [1] = experiment: solubility in G1/S (NP-40 vs SDS abundance) (log2 ratio); higher = more soluble; conditions: cell cycle stage: G1/S
HeLa Kyoto [2] = experiment: melting temperature (median over replicates), in situ; higher = more thermally stable
HeLa Kyoto [3] = experiment: solubility change mitosis vs G1/S (difference of NP-40 vs SDS log2 ratios) (log2 ratio difference); higher = more soluble in mitosis
HeLa Kyoto [4] = experiment: thermal stability score vs G1/S (z-score of summed log2 fold changes over temperatures); higher = more thermally stable than in G1/S
[5] = cell cycle stage: early G1 (4.5 h after nocodazole release)
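For melting temperature (median over replicates), in situ in this document: HeLa Kyoto cells synchronized by double thymidine or nocodazole block, proteins quantified by TMT10plex mass spectrometry, three independent biological replicates.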
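For solubility change mitosis vs G1/S (difference of NP-40 vs SDS log2 ratios) in this document: synchronized HeLa Kyoto cells (double thymidine block for G1/S, nocodazole release for mitosis), protein amounts in NP-40 versus SDS lysates quantified by mass spectrometry, three biological replicates.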
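For solubility in G1/S (NP-40 vs SDS abundance) in this document: HeLa Kyoto cells arrested at G1/S by double thymidine block, proteins quantified by TMT10plex mass spectrometry in mild NP-40 versus SDS extracts, three biological replicates.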
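For thermal stability score vs G1/S (z-score of summed log2 fold changes over temperatures) in this document: synchronized HeLa Kyoto cells, proteins quantified by TMT10plex mass spectrometry, three biological replicates, mitosis taken 0.5 h after nocodazole release, G1/S directly after double thymidine block.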

| Sequence | solubility in G1/S (log2) (HeLa Kyoto [1]) | melting temperature (HeLa Kyoto [2]; cell cycle stage: G1/S) | melting temperature (HeLa Kyoto [2]; cell cycle stage: mitosis) | solubility change mitosis (log2) (HeLa Kyoto [3]) | thermal stability score (HeLa Kyoto [4]; [5]) | thermal stability score (HeLa Kyoto [4]; cell cycle stage: mitosis) |
| --- | --- | --- | --- | --- | --- | --- |
| MRRFLLLYATQQGQAKAIAEEICEQAVVHGFSADLHCISESDKYDLKTETAPLVVVVSTTGTGDPPDTARKFVKEIQNQTLPVDFFAHLRYGLLGLGDSEYTYFCNGGKIIDKRLQELGARHFYDTGHADDCVGLELVVEPWIAGLWPALRKHFRSSRGQEEISGALPVASPASSRTDLVKSELLHIESQVELLRFDDSGRKDSEVLKQNAVNSNQSNVVIEDFESSLTRSVPPLSQASLNIPGLPPEYLQVHLQESLGQEESQVSVTSADPVFQVPISKAVQLTTNDAIKTTLLVELDISNTDFSYQPGDAFSVICPNSDSEVQSLLQRLQLEDKREHCVLLKIKADTKKKGATLPQHIPAGCSLQFIFTWCLEIRAIPKKAFLRALVDYTSDSAEKRRLQELCSKQGAADYSRFVRDACACLLDLLLAFPSCQPPLSLLLEHLPKLQPRPYSCASSSLFHPGKLHFVFNIVEFLSTATTEVLRKGVCTGWLALLVASVLQPNIHASHEDSGKALAPKISISPRTTNSFHLPDDPSIPIIMVGPGTGIAPFIGFLQHREKLQEQHPDGNFGAMWLFFGCRHKDRDYLFRKELRHFLKHGILTHLKVSFSRDAPVGEEEAPAKYVQDNIQLHGQQVARILLQENGHIYVCGDAKNMAKDVHDALVQIISKEVGVEKLEAMKTLATLKEEKRYLQDIWS [MTRR] | 0.0379 | 50.1 °C | 50.2 °C | -0.105 | 0.212 | 0.326 |
| MRRQWGSAMRAAEQAGCMVSASRAGQPEAGPWSCSGVILSRSPGLVLCHGGIFVPFLRAGSEVLTAAGAVFLPGDSCRDDLRLHVQWAPTAAGPGGGAERGRPGLCTPQCASLEPGPPAPSRGRPLQPRLPAELLLLLSCPAFWAHFARLFGDEAAEQWRFSSAARDDEVSEDEEADQLRALGWFALLGVRLGQEEVEEERGPAMAVSPLGAVPKGAPLLVCGSPFGAFCPDIFLNTLSCGVLSNVAGPLLLTDARCLPGTEGGGVFTARPAGALVALVVAPLCWKAGEWVGFTLLCAAAPLFRAARDALHRLPHSTAALAALLPPEVGVPWGLPLRDSGPLWAAAAVLVECGTVWGSGVAVAPRLVVTCRHVSPREAARVLVRSTTPKSVAIWGRVVFATQETCPYDIAVVSLEEDLDDVPIPVPAEHFHEGEAVSVVGFGVFGQSCGPSVTSGILSAVVQVNGTPVMLQTTCAVHSGSSGGPLFSNHSGNLLGIITSNTRDNNTGATYPHLNFSIPITVLQPALQQYSQTQDLGGLRELDRAAEPVRVVWRLQRPLAEAPRSKL [TYSND1] | -0.163 | 55.1 °C | 54 °C | 0.0273 | -2.49 | -2.64 |
| MRSLGANMAAALRAAGVLLRDPLASSSWRVCQPWRWKSGAAAAAVTTETAQHAQGAKPQVQPQKRKPKTGILMLNMGGPETLGDVHDFLLRLFLDRDLMTLPIQNKLAPFIAKRRTPKIQEQYRRIGGGSPIKIWTSKQGEGMVKLLDELSPNTAPHKYYIGFRYVHPLTEEAIEEMERDGLERAIAFTQYPQYSCSTTGSSLNAIYRYYNQVGRKPTMKWSTIDRWPTHHLLIQCFADHILKELDHFPLEKRSEVVILFSAHSLPMSVVNRGDPYPQEVSATVQKVMERLEYCNPYRLVWQSKVGPMPWLGPQTDESIKGLCERGRKNILLVPIAFTSDHIETLYELDIEYSQVLAKECGVENIRRAESLNGNPLFSKALADLVHSHIQSNELCSKQLTLSCPLCVNPVCRETKSFFTSQQL [FECH] | 0.25 | 51.9 °C | 53.4 °C | -0.0764 | -0.37 | -0.327 |
| MRTAGRDPVPRRSPRWRRAVPLCETSAGRRVTQLRGDDLRRPATMKGKERSPVKAKRSRGGEDSTSRGERSKKLGGSGGSNGSSSGKTDSGGGSRRSLHLDKSSSRGGSREYDTGGGSSSSRLHSYSSPSTKNSSGGGESRSSSRGGGGESRSSGAASSAPGGGDGAEYKTLKISELGSQLSDEAVEDGLFHEFKRFGDVSVKISHLSGSGSGDERVAFVNFRRPEDARAAKHARGRLVLYDRPLKIEAVYVSRRRSRSPLDKDTYPPSASVVGASVGGHRHPPGGGGGQRSLSPGGAALGYRDYRLQQLALGRLPPPPPPPLPRDLERERDYPFYERVRPAYSLEPRVGAGAGAAPFREVDEISPEDDQRANRTLFLGNLDITVTESDLRRAFDRFGVITEVDIKRPSRGQTSTYGFLKFENLDMSHRAKLAMSGKIIIRNPIKIGYGKATPTTRLWVGGLGPWVPLAALAREFDRFGTIRTIDYRKGDSWAYIQYESLDAAHAAWTHMRGFPLGGPDRRLRVDFADTEHRYQQQYLQPLPLTHYELVTDAFGHRAPDPLRGARDRTPPLLYRDRDRDLYPDSDWVPPPPPVRERSTRTAATSVPAYEPLDSLDRRRDGWSLDRDRGDRDLPSSRDQPRKRRLPEESGGRHLDRSPESDRPRKRHCAPSPDRSPELSSSRDRYNSDNDRSSRLLLERPSPIRDRRGSLEKSQGDKRDRKNSASAERDRKHRTTAPTEGKSPLKKEDRSDGSAPSTSTASSKLKSPSQKQDGGTAPVASASPKLCLAWQGMLLLKNSNFPSNMHLLQGDLQVASSLLVEGSTGGKVAQLKITQRLRLDQPKLDEVTRRIKVAGPNGYAILLAVPGSSDSRSSSSSAASDTATSTQRPLRNLVSYLKQKQAAGVISLPVGGNKDKENTGVLHAFPPCEFSQQFLDSPAKALAKSEEDYLVMIIVRGFGFQIGVRYENKKRENLALTLL [RBM15] | -0.606 | 46.7 °C | 48.7 °C | 0.598 | 2.61 | 6.38 |
| MRVAAATAAAGAGPAMAVWTRATKAGLVELLLRERWVRVVAELSGESLSLTGDAAAAELEPALGPAAAAFNGLPNGGGAGDSLPGSPSRGLGPPSPPAPPRGPAGEAGASPPVRRVRVVKQEAGGLGISIKGGRENRMPILISKIFPGLAADQSRALRLGDAILSVNGTDLRQATHDQAVQALKRAGKEVLLEVKFIREVTPYIKKPSLVSDLPWEGAAPQSPSFSGSEDSGSPKHQNSTKDRKIIPLKMCFAARNLSMPDLENRLIELHSPDSRNTLILRCKDTATAHSWFVAIHTNIMALLPQVLAELNAMLGATSTAGGSKEVKHIAWLAEQAKLDGGRQQWRPVLMAVTEKDLLLYDCMPWTRDAWASPCHSYPLVATRLVHSGSGCRSPSLGSDLTFATRTGSRQGIEMHLFRVETHRDLSSWTRILVQGCHAAAELIKEVSLGCMLNGQEVRLTIHYENGFTISRENGGSSSILYRYPFERLKMSADDGIRNLYLDFGGPEGELTMDLHSCPKPIVFVLHTFLSAKVTRMGLLV [SNTB2] | -0.0262 | 49.4 °C | 50.3 °C | 0.0092 | 0.506 | 0.99 |
| MRVAALISGGKDSCYNMMQCIAAGHQIVALANLRPAENQVGSDELDSYMYQTVGHHAIDLYAEAMALPLYRRTIRGRSLDTRQVYTKCEGDEVEDLYELLKLVKEKEEVEGISVGAILSDYQRIRVENVCKRLNLQPLAYLWQRNQEDLLREMISSNIQAMIIKVAALGLDPDKHLGKTLDQMEPYLIELSKKYGVHVCGEGGEYETFTLDCPLFKKKIIVDSSEVVIHSADAFAPVAYLRFLELHLEDKVSSVPDNYRTSNYIYNF [DPH6] | 0.152 | 50.2 °C | 50.6 °C | -0.0821 | -0.982 | 0.029 |
| MRVAGAAKLVVAVAVFLLTFYVISQVFEIKMDASLGNLFARSALDTAARSTKPPRYKCGISKACPEKHFAFKMASGAANVVGPKICLEDNVLMSGVKNNVGRGINVALANGKTGEVLDTKYFDMWGGDVAPFIEFLKAIQDGTIVLMGTYDDGATKLNDEARRLIADLGSTSITNLGFRDNWVFCGGKGIKTKSPFEQHIKNNKDTNKYEGWPEVVEMEGCIPQKQD [FAM3C] | 0.634 | 54.2 °C | 53.2 °C | 0.0546 | 0.362 | 0.765 |
| MRVRIGLTLLLCAVLLSLASASSDEEGSQDESLDSKTTLTSDESVKDHTTAGRVVAGQIFLDSEESELESSIQEEEDSLKSQEGESVTEDISFLESPNPENKDYEEPKKVRKPALTAIEGTAHGEPCHFPFLFLDKEYDECTSDGREDGRLWCATTYDYKADEKWGFCETEEEAAKRRQMQEAEMMYQTGMKILNGSNKKSQKREAYRYLQKAASMNHTKALERVSYALLFGDYLPQNIQAAREMFEKLTEEGSPKGQTALGFLYASGLGVNSSQAKALVYYTFGALGGNLIAHMVLGYRYWAGIGVLQSCESALTHYRLVANHVASDISLTGGSVVQRIRLPDEVENPGMNSGMLEEDLIQYYQFLAEKGDVQAQVGLGQLHLHGGRGVEQNHQRAFDYFNLAANAGNSHAMAFLGKMYSEGSDIVPQSNETALHYFKKAADMGNPVGQSGLGMAYLYGRGVQVNYDLALKYFQKAAEQGWVDGQLQLGSMYYNGIGVKRDYKQALKYFNLASQGGHILAFYNLAQMHASGTGVMRSCHTAVELFKNVCERGRWSERLMTAYNSYKDGDYNAAVIQYLLLAEQGYEVAQSNAAFILDQREASIVGENETYPRALLHWNRAASQGYTVARIKLGDYHFYGFGTDVDYETAFIHYRLASEQQHSAQAMFNLGYMHEKGLGIKQDIHLAKRFYDMAAEASPDAQVPVFLALCKLGVVYFLQYIRETNIRDMFTQLDMDQLLGPEWDLYLMTIIALLLGTVIAYRQRQHQDMPAPRPPGPRPAPPQQEGPPEQQPPQ [SEL1L] | 0.228 | 53.9 °C | 52 °C | -0.0462 | -0.563 | -0.64 |
| MRWGHHLPRASWGSGFRRALQRPDDRIPFLIHWSWPLQGERPFGPPRAFIRHHGSSVDSAPPPGRHGRLFPSASATEAIQRHRRNLAEWFSRLPREERQFGPTFALDTVHVDPVIRESTPDELLRPPAELALEHQPPQAGLPPLALSQLFNPDACGRRVQTVVLYGTVGTGKSTLVRKMVLDWCYGRLPAFELLIPFSCEDLSSLGPAPASLCQLVAQRYTPLKEVLPLMAAAGSHLLFVLHGLEHLNLDFRLAGTGLCSDPEEPQEPAAIIVNLLRKYMLPQASILVTTRPSAIGRIPSKYVGRYGEICGFSDTNLQKLYFQLRLNQPYCGYAVGGSGVSATPAQRDHLVQMLSRNLEGHHQIAAACFLPSYCWLVCATLHFLHAPTPAGQTLTSIYTSFLRLNFSGETLDSTDPSNLSLMAYAARTMGKLAYEGVSSRKTYFSEEDVCGCLEAGIRTEEEFQLLHIFRRDALRFFLAPCVEPGRAGTFVFTVPAMQEYLAALYIVLGLRKTTLQKVGKEVAELVGRVGEDVSLVLGIMAKLLPLRALPLLFNLIKVVPRVFGRMVGKSREAVAQAMVLEMFREEDYYNDDVLDQMGASILGVEGPRRHPDEPPEDEVFELFPMFMGGLLSAHNRAVLAQLGCPIKNLDALENAQAIKKKLGKLGRQVLPPSELLDHLFFHYEFQNQRFSAEVLSSLRQLNLAGVRMTPVKCTVVAAVLGSGRHALDEVNLASCQLDPAGLRTLLPVFLRARKLGLQLNSLGPEACKDLRDLLLHDQCQITTLRLSNNPLTAAGVAVLMEGLAGNTSVTHLSLLHTGLGDEGLELLAAQLDRNRQLQELNVAYNGAGDTAALALARAAREHPSLELLHLYFNELSSEGRQVLRDLGGAAEGGARVVVSLTEGTAVSEYWSVILSEVQRNLNSWDRARVQRHLELLLRDLEDSRGATLNPWRKAQLLRVEGEVRALLEQLGSSGS [NLRX1] | -0.273 | 54.3 °C | 54.7 °C | 0.0927 | -0.577 | -2.13 |
